Experimental data reported in patent publication US8003599B2, “Inhibitors of L1 and ADAM10 for the treatment of carcinomas” (Deutsches Krebsforschungszentrum, priority 2004, dated 2011).

System: HEK293 cells
Test: Haptotactic cell migration assay in Transwell chambers, HEK293 cells
Type: cell-based, human
Protocol: (C) Inhibition of haptotactic cell migration in the absence or presence of the indicated mAbs to integrins at a final concentration of 10 μg/ml. FN at 10 μg/ml or BSA for control were coated onto the backside of Transwell chambers. Cells were seeded into the top chamber and allowed to transmigrate for 16 hr at 37° C. The antibody was present during the assay time. Each determination was done in quadruplicate and transmigrated cells were stained from the back of the filter. The dye was eluted from the filter and measured at 595 nm. The amount of dye is proportional to the number of transmigrated cells. Values for the migration on BSA were below 0.25 O.D. units for each cell type.
The haptotactic cell migration assay on fibronectin, laminin or BSA was performed in Transwell chambers (Costar, 6.5 mm diameter, 5 um pore size) and was described in detail elsewhere (Mechtersheimer et al., supra). Transmigrated cells were quantified by staining of the transwell membranes with cristalviolet solution as described (Mechtersheimer at al., supra). The eluted dye was measured at 595 nm in an ELISA reader.

Molecule	induction of cell migration by ascites derived soluble L1 (fibronectin as substrate (FIG. 4B))	induction of HEK293 migration by L1mutSH3-HEK293 supernatant (conditioned medium concentrated tenfold)
soluble L1: affinity purified soluble L1 from ascites fluid of ovarian carcinoma patients, 150 kDa and 200 kDa (protein) IQIPEEYEGHHVMEPPVITEQSPRRLVVFPTDDISLKCEASGKPEVQFRWTRDGVHFKPKEELGVTVYQSPHSGSFTITGNNSNFAQRFQGIYRCFASNKLGTAMSHEIRLMAEGAPKWPKETVKPVEVEEGESVVLPCNPPPSAEPLRIYWMNSKILHIKQDERVTMGQNGNLYFANVLTSDNHSDYICHAHFPGTRTIIQKEPIDLRVKATNSMIDRKPRLLFPTNSSSHLVALQGQPLVLECIAEGFPTPTIKWLRPSGPMPADRVTYQNHNKTLQLLKVGEEDDGEYRCLAENSLGSARHAYYVTVEAAPYWLHKPQSHLYGPGETARLDCQVQGRPQPEVTWRINGIPVEELAKDQKYRIQRGALILSNVQPSDTMVTQCEARNRHGLLLANAYIYVVQLPAKILTADNQTYMAVQGSTAYLLCKAFGAPVPSVQWLDEDGTTVLQDERFFPYANGTLGIRDLQANDTGRYFCLAANDQNNVTIMANLKVKDATQITQGPRSTIEKKGSRVTFTCQASFDPSLQPSITWRGDGRDLQELGDSDKYFIEDGRLVIHSLDYSDQGNYSCVASTELDVVESRAQLLVVGSPGPVPRLVLSDLHLLTQSQVRVSWSPAEDHNAPIEKYDIEFEDKEMAPEKWYSLGKVPGNQTSTTLKLSPYVHYTFRVTAINKYGPGEPSPVSETVVTPEAAPEKNPVDVKGEGNETTNMVITWKPLRWMDWNAPQVQYRVQWRPQGTRGPWQEQIVSDPFLVVSNTSTFVPYEIKVQAVNSQGKGPEPQVTIGYSGEDYPQAIPELEGIEILNSSAVLVKWRPVDLAQVKGHLRGYNVTYWREGSQRKHSKRHIHKDHVVVPANTTSVILSGLRPYSSYHLEVQAFNGRGSGPASEFTFSTPEGVPGHPEALHLECQSNTSLLLRWQPPLSHNGVLTGYVLSYHPLDEGGKGQLSFNLRDPELRTHNLTDLSPHLRYRFQLQATTKEGPGEAIVREGGTMALSGISDFGNISATAGENYSVVSWVPKEGQCNFRFHILFKALGEEKGGASLSPQYVSYNQSSYTQWDLQPDTDYEIHLFKERMFRHQMAVKTNGTGRVRLPPAGFATE	potent dose-dependent inducer of cell migration	–
soluble L1 released from HEK293-hL1mutSH3 cells: supernatant collected from HEK293-hL1mutSH3 cells, concentrated tenfold (protein, UniProt P32004 20-1120, looked up, extracellular domain from SH3-motif mutant L1, supernatant collected from HEK293-hL1mutSH3 cells, concentrated tenfold) extracellular domain: IQIPEEYEGHHVMEPPVITEQSPRRLVVFPTDDISLKCEASGKPEVQFRWTRDGVHFKPKEELGVTVYQSPHSGSFTITGNNSNFAQRFQGIYRCFASNKLGTAMSHEIRLMAEGAPKWPKETVKPVEVEEGESVVLPCNPPPSAEPLRIYWMNSKILHIKQDERVTMGQNGNLYFANVLTSDNHSDYICHAHFPGTRTIIQKEPIDLRVKATNSMIDRKPRLLFPTNSSSHLVALQGQPLVLECIAEGFPTPTIKWLRPSGPMPADRVTYQNHNKTLQLLKVGEEDDGEYRCLAENSLGSARHAYYVTVEAAPYWLHKPQSHLYGPGETARLDCQVQGRPQPEVTWRINGIPVEELAKDQKYRIQRGALILSNVQPSDTMVTQCEARNRHGLLLANAYIYVVQLPAKILTADNQTYMAVQGSTAYLLCKAFGAPVPSVQWLDEDGTTVLQDERFFPYANGTLGIRDLQANDTGRYFCLAANDQNNVTIMANLKVKDATQITQGPRSTIEKKGSRVTFTCQASFDPSLQPSITWRGDGRDLQELGDSDKYFIEDGRLVIHSLDYSDQGNYSCVASTELDVVESRAQLLVVGSPGPVPRLVLSDLHLLTQSQVRVSWSPAEDHNAPIEKYDIEFEDKEMAPEKWYSLGKVPGNQTSTTLKLSPYVHYTFRVTAINKYGPGEPSPVSETVVTPEAAPEKNPVDVKGEGNETTNMVITWKPLRWMDWNAPQVQYRVQWRPQGTRGPWQEQIVSDPFLVVSNTSTFVPYEIKVQAVNSQGKGPEPQVTIGYSGEDYPQAIPELEGIEILNSSAVLVKWRPVDLAQVKGHLRGYNVTYWREGSQRKHSKRHIHKDHVVVPANTTSVILSGLRPYSSYHLEVQAFNGRGSGPASEFTFSTPEGVPGHPEALHLECQSNTSLLLRWQPPLSHNGVLTGYVLSYHPLDEGGKGQLSFNLRDPELRTHNLTDLSPHLRYRFQLQATTKEGPGEAIVREGGTMALSGISDFGNISATAGENYSVVSWVPKEGQCNFRFHILFKALGEEKGGASLSPQYVSYNQSSYTQWDLQPDTDYEIHLFKERMFRHQMAVKTNGTGRVRLPPAGFATE	–	able to induce migration
